From paper PMC11154709, “4S-fluorination of ProB29 in insulin lispro slows fibril formation” (The Journal of Biological Chemistry, 2024)

Legend:
[1] = Analytical ultracentrifugation, velocity sedimentation: hydrodynamic parameters; type: physicochemical; details: 140-206 µM in 100 mM phosphate buffer, pH 8.0, 60,000 RPM, 20 °C, brackets 95% confidence interval
Procedure: Lispro variants (140–206 μM in 100 mM phosphate buffer, pH 8.0) were analyzed by velocity sedimentation at the Canadian Center for Hydrodynamics at the University of Lethbridge using absorbance optics. All samples were measured at 60,000 RPM and 20 °C. Data were analyzed with UltraScan III version 4.0 release 6606 ([38]). Velocity data were initially fitted with the two-dimensional spectrum analysis ([39]) to determine meniscus position and time- and radially-invariant noise, and to generate molecular weight distributions. Two-dimensional spectrum analysis results were refined using the genetic algorithm approach ([40]). Sedimentation and diffusion coefficients derived from the genetic algorithm analysis were transformed to molar mass distributions, assuming a partial specific volume of 0.7248 ml/g for all lispro variants. The enhanced van Holde-Weischet analysis ([41]) was used to determine diffusion-corrected sedimentation coefficient distributions. For the Kd analysis, AUC data were fitted with a discrete model genetic algorithm approach ([29]), assuming the known molar mass of the monomer and floating the Kd, koff, total concentration, partial specific volumes, and frictional ratios as reported in Table S3. […]
Analytical ultracentrifugation:
Lispro variants were formulated at 140 -206 µM in 100 mM phosphate buffer, pH 8.0. Velocity sedimentation experiments were performed at the Canadian Center for Hydrodynamics at the University of Lethbridge using absorbance optics. High concentrations sample s were measured at 237 nm, intermediate concentration samples at 232 nm, and low concentration samples at 225 nm. All samples were measured at 60,000 RPM and 20°C in standard Beckman Coulter cell […]
housings fitted with 0.3 cm epon-charcoal centerpieces for the high concentration samples, and 1.2 cm epon-charcoal centerpieces for the intermediate and low concentration samples. All cells were fitted with sapphire windows. Data were analyzed with UltraScan III version 4.0 release 6606. (38) Velocity data were initially fitted with the two -dimensional spectrum analysis (39) to determine meniscus position and time - and radially-invariant noise, and to generate molecular weight distributions. 2DSA results were refined using the genetic algorithm (GA) approach. (40) Sedimentation and diffusion coefficients derived from the GA analysis were transformed to molar mass distributions (see Figure S2), assuming a partial specific volume of 0.7248 ml/g for all lispro variants. The enhanced van Holde -Weischet analysis (41) was used to determine diffusion - corrected sedimentation coefficient distributions. For the K d analysis, AUC data were fitted with a discrete model genetic algorithm (DMGA) approach,(29) assuming the known molar mass of the monomer, and floating the K d, koff, total concentration, partial specific volumes, and frictional […]
Lispro samples (60 µM in 100 mM sodium phosphate, pH 8.0) were centrifuged at 22,000 g for 1 h at 4°C, before 1 µM thioflavin T (ThT) was added. Each lispro (200 µL) was added to a 96 -well, black, clear bottom plate (Greiner Bio -One) and sealed. Samples were shaken continuously at 960 rpm on a Varioskan multimode plate reader at 37°C, and fluorescence readings were recorded every 15 min (444 nm excitation, 485 nm em ission). Fibrillation runs were performed on at least two separate HPLC fractions, each in triplicate or quadruplicate, and on two different days. The growth phase of each fibrillation replicate was fit to a linear function; f ibrillation lag times were reported as the x-intercept of this fit. Fibril samples were stored at 4°C until analysis by transmission electron microscopy (TEM).
Transmission electron microscopy:
Lispro fibrils were briefly centrifuged (5 kg, 1 min), then washed twice and resuspended in ddH 2O.
Fibrils were stained with 2% uranyl acetate on a 300 -mesh formvar/carbon coated copper grid (Electron Microscopy Sciences) and imaged on a Tecnai T12 LaB6 […] transmission electron […]

[2] = ANS fluorescence (conformational disorder); type: physicochemical; details: 1 μM lispro variant, 5 μM ANS, 100 mM phosphate, pH 8.0, ambient temperature, 350 nm excitation; mean ± SD, three separate HPLC fractions
Procedure: Figure 4 Fibrillation of lispro variants.A, lispro variants (60 μM in 100 mM phosphate buffer, pH 8.0) were incubated at 37 °C with vigorous shaking; fibril formation was monitored by ThT fluorescence. Fibrillation runs were performed on two separate HPLC fractions, each in triplicate or quadruplicate, on two separate days. B–E, TEM images of lispro (B), KP-4R-F (C), KP-4S-F (D), and KP-44-diF (E) aggregates. F, ANS emission spectra of lispro variants (1 μM lispro variant labeled with 5 μM ANS in 100 mM phosphate buffer, pH 8.0). The data presented here indicate the mean ± SD for each variant from measurements of three separate HPLC fractions. 44-diF, 4,4-difluoroproline; 4R-F, 4R-fluoroproline; 4S-F, 4S-fluoroproline; ThT, thioflavin T. […]
Lispro variants (1 μM) were mixed with 5 μM ANS in 100 mM phosphate buffer, pH 8.0. Fluorescence emission spectra were measured at ambient temperature (350 nm excitation). Measurements for each lispro were performed in triplicate from three separate HPLC fractions. […]
Transmission electron microscopy: […]
Lispro variants (1 µM) were mixed with 5 µM ANS in 100 mM phosphate buffer, pH 8.0.
Fluorescence emission spectra were measured in 1 cm quartz cuvettes at ambient temperature using a PTI QuantaMaster fluorescence spectrofluorometer. A 2 nm s -1 scan rate and 350 nm excitation wavelength were used. Measurements for each variant were performed in triplicate from three separate HPLC fractions.

Substance	Partial specific volume PSV [1]	Dimer diffusion coefficient D [1]	Dimer frictional ratio [1]	Dimer sedimentation coefficient s [1]	Monomer diffusion coefficient D [1]	Monomer frictional ratio [1]	Monomer sedimentation coefficient s [1]	ANS emission maximum [2] [nm]
KP-4R-F: insulin lispro with ProB29 replaced by 4R-fluoroproline	0.69 [0.69, 0.70] ml g-1	1.31 [1.08, 1.55] µm2/s	1.12 [0.90, 1.35]	1.99 [1.58, 2.39] S	1.20 [1.14, 1.25] µm2/s	1.54 [1.47, 1.61]	0.90 [0.88, 0.93] S	464 ± 4
KP-4S-F: insulin lispro with ProB29 replaced by 4S-fluoroproline	0.68 [0.67, 0.69] ml g-1	1.20 [1.05, 1.35] µm2/s	1.23 [1.08, 1.37]	1.87 [1.63, 2.10] S	1.32 [1.29, 1.36] µm2/s	1.40 [1.35, 1.44]	1.03 [1.00, 1.05] S	463 ± 6
KP-44-diF: insulin lispro with ProB29 replaced by 4,4-difluoroproline	0.67 [0.64, 0.70] ml g-1	0.99 [0.84, 1.14] µm2/s	1.50 [1.40, 1.60]	1.59 [1.30, 1.88] S	1.24 [1.16, 1.32] µm2/s	1.50 [1.40, 1.60]	1.00 [0.95, 1.04] S	462 ± 5
insulin lispro: fast-acting insulin with inversion of the residues ProB28 and LysB29; Humalog, Eli Lilly [reference compound]	0.72 [0.70, 0.74] ml g-1	1.10 [0.99, 1.21] µm2/s	1.31 [1.20, 1.43]	1.48 [1.25, 1.72] S	1.26 [1.16, 1.35] µm2/s	1.44 [1.32, 1.57]	0.85 [0.81, 0.88] S	466 ± 2
